# Experimental data published in paper PMC10542384.
# B1: HA-RNF111 wild type (HA-RNF111^WT) in RNF111 KO U2OS cells [not stated] / Arkadia-like 1 (ARKL1) [human (endogenous in U2OS)] (parent)
# chain 1: MSQWTPEYNELYTLKVDMKSEIPSDAPKTQESLKGILLHPEPIGAAKSFPAGVEMINSKVGNEFSHLCDDSQKQEKEMNGNQQEQEKSLVVRKKRKSQQAGPSYVQNCVKENQGILGLRQHLGTPSDEDNDSSFSDCLSSPSSSLHFGDSDTVTSDEDKEVSVRHSQTILNAKSRSHSARSHKWPRTETESVSGLLMKRPCLHGSSLRRLPCRKRFVKNNSSQRTQKQKERILMQRKKREVLARRKYALLPSSSSSSENDLSSESSSSSSTEGEEDLFVSASENHQNNPAVPSGSIDEDVVVIEASSTPQVTANEEINVTSTDSEVEIVTVGESYRSRSTLGHSRSHWSQGSSSHASRPQEPRNRSRISTVIQPLRQNAAEVVDLTVDEDEPTVVPTTSARMESQATSASINNSNPSTSEQASDTASAVTSSQPSTVSETSATLTSNSTTGTSIGDDSRRTTSSAVTETGPPAMPRLPSCCPQHSPCGGSSQNHHALGHPHTSCFQQHGHHFQHHHHHHHTPHPAVPVSPSFSDPACPVERPPQVQAPCGANSSSGTSYHEQQALPVDLSNSGIRSHGSGSFHGASAFDPCCPVSSSRAAIFGHQAAAAAPSQPLSSIDGYGSSMVAQPQPQPPPQPSLSSCRHYMPPPYASLTRPLHHQASACPHSHGNPPPQTQPPPQVDYVIPHPVHAFHSQISSHATSHPVAPPPPTHLASTAAPIPQHLPPTHQPISHHIPATAPPAQRLHPHEVMQRMEVQRRRMMQHPTRAHERPPPHPHRMHPNYGHGHHIHVPQTMSSHPRQAPERSAWELGIEAGVTAATYTPGALHPHLAHYHAPPRLHHLQLGALPLMVPDMAGYPHIRYISSGLDGTSFRGPFRGNFEELIHLEERLGNVNRGASQGTIERCTYPHKYKKVTTDWFSQRKLHCKQDGEEGTEEDTEEKCTICLSILEEGEDVRRLPCMHLFHQVCVDQWLITNKKCPICRVDIEAQLPSES
# chain 2: MKMEEAVGKVEELIESEAPPKASEQETAKEEDGSVELESQVQKDGVADSTVISSMPCLLMELRRDSSESQLASTESDKPTTGRVYESDSSNHCMLSPSSSGHLADSDTLSSAEENEPSQAETAVEGDPSGVSGATVGRKSRRSRSESETSTMAAKKNRQSSDKQNGRVAKVKGHRSQKHKERIRLLRQKREAAARKKYNLLQDSSTSDSDLTCDSSTSSSDDDEEVSGSSKTITAEIPDGPPVVAHYDMSDTNSDPEVVNVDNLLAAAVVQEHSNSVGGQDTGATWRTSGLLEELNAEAGHLDPGFLASDKTSAGNAPLNEEINIASSDSEVEIVGVQEHARCVHPRGGVIQSVSSWKHGSGTQYVSTRQTQSWTAVTPQQTWASPAEVVDLTLDEDSRRKYLL
# Variants of: B1
# Assay: proximity ligation assay (PLA)
# Conditions: with Arkadia-like 1 (ARKL1) [human (endogenous in U2OS)]; RNF111 KO U2OS cells complemented with vector (n = 19), HA-RNF111WT (n = 18), HA-RNF111 K237/238R (n = 28); antibodies to HA and ARKL1; parent: 7.5; read off a plot
row,response (PLA foci per cell),Variant
1,3.2,chain 1 K237R K238R
